Results from PMC3101595 (The Journal of Cell Biology, 2010).

T1: 6His-Flag-DIAP1 (Drosophila, UniProt Q24306 1-438)
T1 sequence (looked up): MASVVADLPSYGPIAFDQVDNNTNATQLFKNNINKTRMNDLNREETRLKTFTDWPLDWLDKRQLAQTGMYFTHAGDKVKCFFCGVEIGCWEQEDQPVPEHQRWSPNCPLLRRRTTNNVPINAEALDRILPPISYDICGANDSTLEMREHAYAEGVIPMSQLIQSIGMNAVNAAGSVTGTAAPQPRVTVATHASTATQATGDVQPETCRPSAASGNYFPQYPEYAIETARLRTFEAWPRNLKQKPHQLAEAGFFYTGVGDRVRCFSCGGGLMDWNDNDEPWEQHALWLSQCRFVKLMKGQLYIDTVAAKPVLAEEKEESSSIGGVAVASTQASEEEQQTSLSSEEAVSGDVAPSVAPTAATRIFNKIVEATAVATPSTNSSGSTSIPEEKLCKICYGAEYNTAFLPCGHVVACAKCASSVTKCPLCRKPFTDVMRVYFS


Assays:
[1] = target: T1, 6His-Flag-DIAP1; assay: co-IP
[2] = target: the molecule itself; assay: cross-linking

| binding result [1] | Binder | binding result [2] |
| --- | --- | --- |
| binds | HidΔMTS-His6 (domain or fragment, Drosophila, UniProt Q24106 1-386, looked up) MAVPFYLPEGGADDVASSSSGASGNSSPHNHPLPSSASSSVSSSGVSSASASSASSSSSASSDGASSAASQSPNTTTSSATQTPMQSPLPTDQVLYALYEWVRMYQSQQSAPQIFQYPPPSPSCNFTGGDVFFPHGHPNPNSNPHPRTPRTSVSFSSGEEYNFFRQQQPQPHPSYPAPSTPQPMPPQSAPPMHCSHSYPQQSAHMMPHHSAPFGMGGTYYAGYTPPPTPNTASAGTSSSSAAFGWHGHPHSPFTSTSTPLSAPVAPKMRLQRSQSDAARRKRLTSTGEDEREYQSDHEATWDEFGDRYDNFTAGRERLQEFNGRIPPRKKKSSNSHSSSSNNPVCHTDSQPGGTSQAESGAIHGHISQQRQVERERQKAKAEKKKP | binds |
| – | Rpr-His6 (natural protein, Drosophila, UniProt Q24475 1-65, looked up) MAVAFYIPDQATLLREAEQKEQQILRLRESQWRFLATVVLETLRQYTSCHPKTGRKSGKYRKPSQ | binds |
